The text below walks through data of patent publication US20190233475A1 (Bicycle, published 2019).

Read-outs that look alike come from different tables or passages of the source. *1 amine or outer side, *2 acyl side, *3 side chain or, on linkers, in order; H or OH if unused. Bridges are numbered along the chain shown (N, C = ends). Where no end group is shown, it is not given here. TBMB = c1c(C[*:1])cc(C[*:3])cc1C[*:2]

Holding throughout (test): enzyme inhibition assay, fluorogenic substrate Z-PheArg-AMC
Assay [1] deals with T1, human plasma kallikrein (human, UniProt P03952 20-638).
T1 construct: Enzyme used in the Ki assays; also called human kallikrein; PK
How it is done:
(§1) Functional enzyme assays were conducted in 10 mM Tris HCl, 150 mM NaCl, 10 mM MgCl₂, 1 mM CaCl₂ and 1 mg/mL BSA (all Sigma UK) pH 7.4 at 25° C. in solid black 96 or 384 well plates. […] Release of AMC was measured using a Pherastar FS (BMG Labtech), excitation 360 nm, emission 460 nm. The rate of the linear phase of the reaction, typically 5 to 45 minutes, was calculated in MARS data analysis software (BMG labtech). The rate was then used to calculate the IC₅₀ and Kᵢ in Prism (GraphPad). A four parameter inhibition non-linear regression equation was used to calculate the IC₅₀. The One site-fit Kᵢ equation used to calculate the Kᵢ, constraining the Kᵢ to the Kₘ for the substrate which is 150 μM for the human enzyme, and 200 μM for the rat orthologue. All Kᵢ/IC₅₀ values are the mean of at least two independent experiments, and at least three for peptides with Kᵢ values lower than 1 nM. For rabbit kallikrein, between 7 to 14 pM enzyme was employed, with 33 μM substrate with a Kₘ of 50 μM.

The target of assay [2] is T2, rat plasma kallikrein (rat, UniProt P14272 391-638).
T2 construct: domain: catalytic domain; Expressed and purified in house; also called rat kallikrein; rPK
How it is done: as §1

Assay [3] addresses T3, rabbit plasma kallikrein (rabbit, UniProt G1T127 20-390; G1T127 391-629, The active enzyme is two chains, heavy and catalytic light, joined by a disulfide after cleavage at Arg390-Ile391. The letters do not carry the natural glycosylation.).
T3 construct: also called rabbit kallikrein
As for the experimental part:
as §1

The target of assay [4] is T1, human plasma kallikrein. How it is done:
as §1
This is another data set of the same source.

Assay [5] addresses T2, rat plasma kallikrein. How it is done: as §1
This is another data set of the same source.

The target of assay [6] is T3, rabbit plasma kallikrein. How it is done: as §1
This is another data set of the same source.

T3 sequence (heavy, as listed by the source limits assumed, form in doubt, chain 1 of 2): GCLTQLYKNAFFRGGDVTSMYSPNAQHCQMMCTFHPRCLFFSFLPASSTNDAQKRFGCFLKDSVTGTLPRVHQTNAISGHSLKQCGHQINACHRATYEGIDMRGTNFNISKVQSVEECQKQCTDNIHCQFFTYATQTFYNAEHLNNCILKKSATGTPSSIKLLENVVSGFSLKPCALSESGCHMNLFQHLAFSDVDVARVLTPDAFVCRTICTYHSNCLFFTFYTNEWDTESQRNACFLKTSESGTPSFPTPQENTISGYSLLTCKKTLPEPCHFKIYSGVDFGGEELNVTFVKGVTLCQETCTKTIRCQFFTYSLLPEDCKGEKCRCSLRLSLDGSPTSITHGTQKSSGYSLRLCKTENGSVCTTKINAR
T3 sequence (light, as listed by the source limits assumed, form in doubt, chain 2 of 2): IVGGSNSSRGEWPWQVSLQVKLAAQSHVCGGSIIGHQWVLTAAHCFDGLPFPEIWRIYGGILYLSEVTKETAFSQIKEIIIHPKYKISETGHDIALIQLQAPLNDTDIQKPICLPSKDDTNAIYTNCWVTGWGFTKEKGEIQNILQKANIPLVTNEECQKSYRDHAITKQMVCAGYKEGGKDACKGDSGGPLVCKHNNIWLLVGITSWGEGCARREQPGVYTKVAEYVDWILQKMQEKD
T1 sequence (P03952 20-638 limits assumed): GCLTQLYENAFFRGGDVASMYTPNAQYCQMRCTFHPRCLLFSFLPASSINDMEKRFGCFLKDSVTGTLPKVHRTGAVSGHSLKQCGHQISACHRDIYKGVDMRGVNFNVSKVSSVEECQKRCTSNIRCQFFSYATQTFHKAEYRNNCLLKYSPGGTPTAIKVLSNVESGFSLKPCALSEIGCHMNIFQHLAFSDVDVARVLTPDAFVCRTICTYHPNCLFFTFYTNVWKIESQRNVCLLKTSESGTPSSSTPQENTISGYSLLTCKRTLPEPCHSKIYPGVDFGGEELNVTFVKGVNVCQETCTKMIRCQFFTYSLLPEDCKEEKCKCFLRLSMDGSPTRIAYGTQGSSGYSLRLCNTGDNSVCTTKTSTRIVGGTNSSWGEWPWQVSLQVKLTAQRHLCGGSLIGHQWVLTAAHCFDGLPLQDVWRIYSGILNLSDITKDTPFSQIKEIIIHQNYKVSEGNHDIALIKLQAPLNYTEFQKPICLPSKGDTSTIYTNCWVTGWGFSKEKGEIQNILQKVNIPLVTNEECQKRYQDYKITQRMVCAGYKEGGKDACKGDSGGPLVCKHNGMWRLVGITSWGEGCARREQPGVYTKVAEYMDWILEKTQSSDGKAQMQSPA
T2 sequence (P14272 391-638 limits assumed): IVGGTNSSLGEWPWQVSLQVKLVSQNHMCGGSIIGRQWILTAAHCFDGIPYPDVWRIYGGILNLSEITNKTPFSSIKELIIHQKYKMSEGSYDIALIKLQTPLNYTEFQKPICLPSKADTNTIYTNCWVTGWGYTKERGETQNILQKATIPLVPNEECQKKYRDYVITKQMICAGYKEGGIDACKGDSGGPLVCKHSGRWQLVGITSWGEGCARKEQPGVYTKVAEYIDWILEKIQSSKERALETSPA

B1: 06-254 (peptide)
peptide: ACKNYWNPCDLVTISCA-NH2
modifications: linker 2-9-16 via TBMB; N-terminus assumed
SMILES: CC[C@H](C)[C@@H]1NC(=O)[C@H]([C@@H](C)O)NC(=O)[C@H](C(C)C)NC(=O)[C@H](CC(C)C)NC(=O)[C@H](CC(=O)O)NC(=O)[C@@H]2CSCc3cc(cc(c3)CSC[C@@H](C(=O)N[C@@H](C)C(N)=O)NC(=O)[C@H](CO)NC1=O)CSC[C@H](NC(=O)[C@H](C)N)C(=O)N[C@@H](CCCCN)C(=O)N[C@@H](CC(N)=O)C(=O)N[C@@H](Cc1ccc(O)cc1)C(=O)N[C@@H](Cc1c[nH]c3ccccc13)C(=O)N[C@@H](CC(N)=O)C(=O)N1CCC[C@H]1C(=O)N2
notes: Synthetic bicyclic peptide, 6 x 6, made on Rink amide resin
As to B1, the Ki (in general, the dissociation constant of the complex between target and ligand, obtained from inhibition or displacement) amounted to 0.0053 µM in assay [1]; 0.0425 µM in assay [2]; 0.28 µM in assay [3]; 0.0053 µM in assay [4]; 0.0425 µM in assay [5]; 0.28 µM in assay [6].

B2: 06-255 (peptide)
peptide: ACRNYWNPCTLINITCA-NH2
modifications: linker 2-9-16 via TBMB
notes: as for B1
Consider B2, for which the Ki turned out to be 0.0034 µM in assay [1]; 0.0189 µM in assay [2]; 0.342 µM in assay [3]; 0.0034 µM in assay [4]; 0.0189 µM in assay [5]; 0.342 µM in assay [6].
